# Measurements as given in paper PMC5240623, “Methylation specific targeting of a chromatin remodeling complex from sponges to humans” (Scientific Reports, 2017).
# No end group written: not given here.
# B1: HsMBD2 coiled-coil domain, uncleaved fusion peptide (domain or fragment, human)
# chain: KAFIVTDEDIRKQEERVQQVRKKLEEALMADILS
# modifications: also: uncleaved fusion tag
# notes: MBD2, human, coiled-coil domain; the purification of this construct is not described here
# Biological target: T1, HsGATAD2A coiled-coil domain, uncleaved fusion peptide (human, UniProt Q86YP4 137-178)
# T1 construct: GATAD2A (p66α), human, coiled-coil domain; the purification of this construct is not described here; also called GATAD2A (p66α)
# Assay: ITC; fusion peptides left uncleaved; 50 mM Hepes pH 7.4, 150 mM NaCl, 298 K; MicroCal Auto-iTC200, 20–24 injections; HsMBD2 (1.8 mM), EmGATAD2A/B (2.74 mM), DmGATAD2A/B (2.5 mM) injected into HsGATAD2A (100 μM), EmMBD2/3 (270 μM), DmMBD2/3 (250 μM); one-site binding model
# Conditions: both partners purified
# T1 sequence (Q86YP4 137-178): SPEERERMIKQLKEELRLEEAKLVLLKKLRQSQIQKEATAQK
binder,measurement,value
B1,Kd,48 nM
same,dH,-9.93 kcal/mol
same,stoichiometry N,1.3
